Source: paper doi:10.1101/524447

Target: Integrin β3 cytoplasmic tail peptide (human (from the printed UniProt ID))
Experiment: SPR

## Syk N-terminal SH2 domain alone (N-SH2) (domain or fragment)
  Kd: 130 µM

## Syk tandem SH2 (tSH2) fragment, amino acids 9-264 (from UniProt P43405 9-264) (domain or fragment)
  Kd: 3 µM

## Syk C-terminal SH2 domain with the IA segment (IA-C-SH2) (domain or fragment)
  Kd: 25 µM

## Syk N-terminal SH2 domain with the IA segment (N-SH2+IA) (domain or fragment)
  Kd: 8 µM
